Series [1] concerns MS2 coat protein. Nature of the series: apparent KD of MS2 coat protein, switch ON state; designed switch direction (-1 OFF switch, 1 ON switch): 1; higher = weaker reporter binding. The following applies: FMN input: 0 or 200 uM; Eterna round: R93 (includes R88 designs). The method, boiled down: (§1)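 For every design, apparent KD is the median of normalised binding-curve fits from its clusters. The RNA switches were transcribed on-chip from Illumina sequencing clusters and titrated with SNAP-549-labelled MS2 coat protein (twofold steps, 0.7 or 1.5 nM to 3 µM; 0.8–1.5 h to 10–20 min per step). Titrations used 100 mM Tris-HCl pH 7.5, 80 mM KCl, 4 mM MgCl2, without or with constant ligand.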

The subject of series [2] is MS2 coat protein. Nature of the series: apparent KD of MS2 coat protein, switch OFF state (with FMN for OFF switches, without FMN for ON switches); designed switch direction (-1 OFF switch, 1 ON switch): 1; higher = weaker reporter binding. The following applies: FMN input: 0 or 200 uM; Eterna round: R93 (includes R88 designs). An outline of the steps:
as §1

For the sequence “AGAAAUAAAAGCGAGGAUAUCCAAAAGAAAACAUGAGGAUCACCCAUGUAAAAGAAAAUAAAAUGGGAGAAGGCGCAAAAUAAAG”, the “apparent KD of MS2 coat protein” value came to 0.0147 µM in the series on MS2 coat protein [1] and 0.0273 µM with MS2 coat protein [2].

For the sequence “AAAGGGAUUACGGAGGAUAUGGAAAAAAAAACAUGAGGAUCACCCAUGUCAAAAAAAAAAAAGGACCAGAAGGCCGUAAUCUCAAA [hsl_samestate2]”, the entries for the “apparent KD of MS2 coat protein” value in the series on MS2 coat protein [1] and in the series on MS2 coat protein [2] were 0.0199 µM and 0.0226 µM, respectively.

Turning to “AAAAAAAAGGGUGAGGAUAUCGAAAAAAAAACAUGAGGAUCACCCAUGUGAAAAAAAAAAAAAUGCGAGAAGGCACUAAAAAAAAA [Same State 2.3]”, the figures for the “apparent KD of MS2 coat protein” value in the series on MS2 coat protein [1] and in the series with MS2 coat protein [2] were 0.0232 µM and 0.104 µM, respectively.

As to “AAAACACAUGAGGAUCACCCAUGUGAAAACAUGGGAGGAUAUGCAUGGAAAACAUGCUAUGCAGAAGGCUCAUGUG [SS1 - 7]”, the “apparent KD of MS2 coat protein” value in the series on MS2 coat protein [1] is 0.0838 µM; with MS2 coat protein [2], 0.0626 µM.

Regarding “GGCCAACAUGAGGAUCACCCAUGUCGCCAAAAUCGAGGAUAUGGGUGCCAGCUCGGGCAGCCAGAAGGCGACAAAA [Qutiqumais]”, the results for the “apparent KD of MS2 coat protein” value in the series with MS2 coat protein [1] and in the series on MS2 coat protein [2] were 0.0551 µM and 0.224 µM, respectively.

On to “UAUAGACAUGAGGAUCACCCAUGUAGAAUUAUGGGAGGAUAUACAAAGACGAGAGUCAGAGUAGAAGGCCUAGGAA [salish99-ss1-152]”, for which the “apparent KD of MS2 coat protein” value came out at 0.024 µM in the series with MS2 coat protein [1] and 0.0557 µM with MS2 coat protein [2].

“AAAGUGCCGACGAAGGAUAUAGCGGGUGAGACAUGAGGAUCACCCAUGUAUGCAGAACUCAUCCUCUAGAAGGUUGAGACGGCUA [Bionlateat]”: the results for the “apparent KD of MS2 coat protein” value with MS2 coat protein [1] and in the series on MS2 coat protein [2] were 0.488 µM and 0.138 µM, respectively.

On to “UUACAGCACAGGUAGGAUAUGUAGGGUGGUACAUGAGGAUCACCCAUGUAUCCACCCUUCGAAAGGCAGAAGGGCCUGUCGCUGC [Arsora]”, for which the “apparent KD of MS2 coat protein” value in the series on MS2 coat protein [1] is 0.0246 µM; in the series with MS2 coat protein [2], 0.0168 µM.

As for “AGGAAACAUGAGGAUCACCCAUGUAAAAGGUGGUUAGGAUAUGCGAAAAGAAAAAGAAAAGCAGAAGGGACAAGAA [Inspired by JR's SameStare1_sub2]”, the results for the “apparent KD of MS2 coat protein” value in the series with MS2 coat protein [1] and in the series on MS2 coat protein [2] were 0.237 µM and 0.415 µM, respectively.

As for “UAAAAACAUGAGGAUCACCCAUGUGAGAACAUGGGAGGAUAUACAAAGACGAAAGUCAAAGUAGAAGGCCUAAAAU [Mat - Same State 1 - Mod - D170]”, the “apparent KD of MS2 coat protein” value in the series on MS2 coat protein [1] was determined as 0.0751 µM; in the series with MS2 coat protein [2] it was 0.0159 µM.

Consider “UGAAGACAUGAGGAUCACCCAUGUGGGAUUAUGGGAGGAUAUACAAAGACGAGAGUCAGAGUAGAAGGCCUAGGAU [salish99-ss1-117(!)]”, for which the entries for the “apparent KD of MS2 coat protein” value in the series on MS2 coat protein [1] and in the series on MS2 coat protein [2] were 0.0314 µM and 0.0579 µM, respectively.

For “AAAAGACAUGAGGAUCACCCAUGUAAAAACUUGAGAGGAUAUGCUUGGAAAACAUGCUAUGCAGAAGGCUCUAGUC [SS1 - 15]”, the “apparent KD of MS2 coat protein” value was 0.018 µM in the series on MS2 coat protein [1] and 0.0263 µM with MS2 coat protein [2].

Take “AAAAGACAUGAGGAUCACCCAUGUAAAAACGUGGGAGGAUAUGCAUGGAAAACAUGCUGUGCAGAAGGCCCGUGUC [SS1 - 22]”: the “apparent KD of MS2 coat protein” value with MS2 coat protein [1] was 0.263 µM; in the series with MS2 coat protein [2] it was 0.2 µM.

Take “AUAAAAUAAACUGAGGAUAUCUAUAAUAAAACAUGAGGAUCACCCAUGUUUAAACAAAGAUCAUGGGAGAAGGCAGAAAAUAAAU [SS2 M 38]”: the “apparent KD of MS2 coat protein” value was 0.0378 µM in the series on MS2 coat protein [1] and 0.0366 µM with MS2 coat protein [2].

As to “GAUAUACAUGAGGAUCACCCAUGUUAGGUGGGUCAAGGAUAUUGAUAUAAAUAAAAAACUCGAGAAGGUGAAUAAA [JR_SS001_Sub020]”, the “apparent KD of MS2 coat protein” value is 0.298 µM in the series on MS2 coat protein [1] and 0.153 µM in the series on MS2 coat protein [2].

For the sequence “GAUAAACAUGAGGAUCACCCAUGUAGAAAUAUGGGAGGAUAUACGAAGACGAAAGUCAAAGUAGAAGGCCUAAAAG [Mat - Same State 1 - Eli mod - D114]”, the “apparent KD of MS2 coat protein” value was 0.0239 µM in the series with MS2 coat protein [1] and 0.0526 µM in the series on MS2 coat protein [2].

With “GAACCACAUGAGGAUCACCCAUGUCUAAAUAUGGGAGGAUAUGCACAAAAGGAAAUAACUGCAGAAGGCCUACGAA [62%, Redo, 3]”, the “apparent KD of MS2 coat protein” value is 0.0257 µM in the series with MS2 coat protein [1] and 0.135 µM with MS2 coat protein [2].

As to “AGGAAACAUGAGGAUCACCCAUGUAAAAAUAUGGGAGGAUAUACGAAGACAAAAAAAAAAGUAGAAGGCCUAAAAG [Garnet 12]”, the “apparent KD of MS2 coat protein” value came to 0.0652 µM in the series on MS2 coat protein [1] and 0.266 µM in the series on MS2 coat protein [2].

Turning to “AGGAGACAUGAGGAUCACCCAUGUGAGAAGAGGCGAGGAUAUCGAAAGAAAGAAGAGAAACGAGAAGGCGCGAGCA [salish99-SS1-020]”, the “apparent KD of MS2 coat protein” value in the series on MS2 coat protein [1] is 0.0197 µM; in the series on MS2 coat protein [2] it was 0.0371 µM.
